± gives the uncertainty stated by the source.
Assay: self-splicing fitness, log relative to wild type (ln ratio); higher = more splicing; Tetrahymena group I intron in knt gene, E. coli kanamycin selection, DiMSum; sequences stand for … in CUCUCU…GGAGGGAAAAGUUAUCAGGCAUGCACCUGGUAGCUAGUCUUUAAACCAAUAGAUUGCAUCGGUUUAAAAGGCAAGACCGUCAAAUUGCGGGAAAGGGGUCAACAGCCGUUCAGUACCAAGUCUCAGGGGAAACUUUGAGAUGGCCUUGCAAAGGGUAUGGUAAUAAGCUGACGGACAUGGUCCUAACCACGCAGCCAAGUCCUAAGUCAACAGAUCUUCUGUUGAUAUGGAUGCAGUUCACAGACUAAAUGUCGGUCGGGGAAGAUGUAUUCUUCUCAUAAGAUAUAGUCGGACCUCUCCUUAAUGGGAGCUAGCGGAUGAAGUGAUGCAACACUGGAGCCGCUGGGAACUAAUUUGUAUGCGAAAGUAUAUUGAUUAGUUUUGGAGUACUCGUGGUCG
How it was run: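 The eight P1ex-region nucleotides of an intron in the knt kanamycin-resistance gene on pET-22b(+) were all randomised and the library put into E. coli BL21(DE3). Six replicate transformations were grown overnight at 37°C or 30°C on LB agar with or without 25 μg/mL kanamycin, together with 100 μg/mL carbenicillin, 50 μM IPTG and 0.2% rhamnose. Colonies were pooled and amplicon-sequenced on an Illumina HiSeq 2500. Fitness from DiMSum is the error-weighted combination of wild-type-normalised replicate fold changes, kanamycin over none.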

| Sequence | self-splicing fitness (ln) (30 °C) | self-splicing fitness (ln) (37 °C) |
| --- | --- | --- |
| ACCUAGCAAUAUUACGGAAA | -1.79 ± 0.16 | -1.51 ± 0.12 |
| AGCAAGCAAUAUUACGUCAA | -1.76 ± 0.13 | -1.13 ± 0.11 |
| GCUUAGCAAUAUUACGCUGC | -3.09 ± 0.35 | -2.38 ± 0.42 |
| AUCCAGCAAUAUUACGGCAU | -0.192 ± 0.071 | 0.204 ± 0.082 |
| UGGCAGCAAUAUUACGCAGG | -2.79 ± 0.16 | -1.23 ± 0.12 |
| GGGUAGCAAUAUUACGAGAC | -3.48 ± 0.32 | -1.9 ± 0.42 |
| CCAUAGCAAUAUUACGGUUC | -4.2 ± 0.46 | -2.03 ± 0.35 |
| AGGAAGCAAUAUUACGGCUU | -3.74 ± 0.34 | -1.32 ± 0.17 |
| GGUCAGCAAUAUUACGUACA | -0.423 ± 0.087 | 0.547 ± 0.14 |
| AGUGAGCAAUAUUACGGAUA | -2.82 ± 0.28 | -0.678 ± 0.35 |
| GUUUAGCAAUAUUACGAGGC | -2.48 ± 0.24 | -2.45 ± 0.24 |
| UCCAAGCAAUAUUACGAUGG | -1.01 ± 0.059 | 0.16 ± 0.083 |
| CAUUAGCAAUAUUACGAUAU | -2.91 ± 0.2 | -3.27 ± 0.3 |
| UUGAAGCAAUAUUACGCAGA | -0.643 ± 0.13 | 0.228 ± 0.11 |
| AGACAGCAAUAUUACGCUUU | -3.18 ± 0.18 | -1.23 ± 0.12 |
| UCAAAGCAAUAUUACGUCAC | -3.89 ± 0.36 | -3.01 ± 0.4 |
| GACAAGCAAUAUUACGUAGG | -3.07 ± 0.11 | -2.22 ± 0.13 |
| AUAGAGCAAUAUUACGGCCG | -0.599 ± 0.24 | -1.36 ± 0.45 |
| GUUUAGCAAUAUUACGCUCG | -0.147 ± 0.15 | 0.0286 ± 0.21 |
| GGGUAGCAAUAUUACGGGUG | -4.22 ± 0.36 | -2.68 ± 0.22 |
| CGCAAGCAAUAUUACGGUGU | -3.42 ± 0.16 | -3.25 ± 0.23 |
| AUAGAGCAAUAUUACGUCUG | -0.796 ± 0.098 | -0.654 ± 0.14 |
| AUGAAGCAAUAUUACGUAGG | -2.79 ± 0.16 | -1.25 ± 0.18 |
| CACCAGCAAUAUUACGGUUU | -0.79 ± 0.045 | -0.0932 ± 0.065 |
| CGGUAGCAAUAUUACGACGA | -1.46 ± 0.19 | 0.22 ± 0.17 |
| GUCCAGCAAUAUUACGGGGC | -4.08 ± 0.27 | -1.8 ± 0.2 |

| Sequence | self-splicing fitness (ln) (30 °C) | self-splicing fitness (ln) (37 °C) |
| --- | --- | --- |
| GGAGAGCAAUAUUACGUUUC | -3.17 ± 0.34 |  |
| CGCAAGCAAUAUUACGCCAU | -3.9 ± 0.26 | -2.61 ± 0.19 |
| GCCGAGCAAUAUUACGGCUG | -3.31 ± 0.34 | -2.96 ± 0.38 |
| CUAAAGCAAUAUUACGAUCC | -2.81 ± 0.27 | -1.13 ± 0.36 |
| AGCGAGCAAUAUUACGUUCU | -2.13 ± 0.14 | -0.892 ± 0.14 |
| CACCAGCAAUAUUACGGCAC | -2.38 ± 0.12 | -1.09 ± 0.11 |
| CACUAGCAAUAUUACGUAAG | 0.264 ± 0.061 | 0.0438 ± 0.073 |
| GUUUAGCAAUAUUACGAGCU |  | -0.552 ± 0.27 |
| UCCGAGCAAUAUUACGUUUU | -3.83 ± 0.25 | -0.687 ± 0.15 |
| GAGGAGCAAUAUUACGUGGC | -3.34 ± 0.24 |  |
| GGACAGCAAUAUUACGAAGC | -0.729 ± 0.079 | 0.158 ± 0.097 |
| UUUUAGCAAUAUUACGAAAC |  | -2.4 ± 0.49 |
| UCACAGCAAUAUUACGGGGC | -4.05 ± 0.21 | -2.4 ± 0.15 |
| UGCAAGCAAUAUUACGUUAC | -2.91 ± 0.27 | -2.41 ± 0.24 |
| GUAUAGCAAUAUUACGGCUC | 0.0185 ± 0.15 | 0.629 ± 0.15 |
| UCGAAGCAAUAUUACGAUCG | -1.25 ± 0.099 | -0.609 ± 0.12 |
| GCAGAGCAAUAUUACGGCGA | -2.12 ± 0.11 | -1.55 ± 0.11 |
| CAGCAGCAAUAUUACGAACU | -2.68 ± 0.16 | -2.11 ± 0.14 |
| UCUGAGCAAUAUUACGAACA | -3.18 ± 0.34 | -3.46 ± 0.35 |
| CCGAAGCAAUAUUACGGGAU | -3.69 ± 0.26 | -2.47 ± 0.22 |
| CGUUAGCAAUAUUACGUGUU | -4.58 ± 0.22 | -3.04 ± 0.17 |
| CGCUAGCAAUAUUACGCAUA | -3.26 ± 0.21 | -2.36 ± 0.21 |
| AUUUAGCAAUAUUACGUGCU | -2.78 ± 0.11 | -0.856 ± 0.1 |
| CCCAAGCAAUAUUACGCCCC |  | -2.52 ± 0.48 |
| CCGAAGCAAUAUUACGAACU | -3.08 ± 0.29 | -2.17 ± 0.46 |
| UCCAAGCAAUAUUACGAGCU | -3.58 ± 0.16 | -3 ± 0.25 |

| Sequence | self-splicing fitness (ln) (30 °C) | self-splicing fitness (ln) (37 °C) |
| --- | --- | --- |
| AAAUAGCAAUAUUACGAGCG | -1.75 ± 0.17 | -0.208 ± 0.15 |
| AGAGAGCAAUAUUACGUAGA | -3.63 ± 0.25 | -2.65 ± 0.34 |
| UGGAAGCAAUAUUACGGCUA | -0.499 ± 0.14 | -0.0289 ± 0.23 |
| GGAAAGCAAUAUUACGGUCC | -2.06 ± 0.25 |  |
| GGCAAGCAAUAUUACGAAUC | -0.875 ± 0.17 | -0.687 ± 0.26 |
| UACAAGCAAUAUUACGGACU | -1.22 ± 0.079 | -0.00357 ± 0.085 |
| GCAAAGCAAUAUUACGGAUG | -2.52 ± 0.12 | -1.74 ± 0.13 |
| UUAGAGCAAUAUUACGUAUU | -5.06 ± 0.45 | -2.91 ± 0.35 |
| CGUCAGCAAUAUUACGCGGU | -2.93 ± 0.16 | -2.27 ± 0.19 |
| UGAGAGCAAUAUUACGGAGC | -2.21 ± 0.18 | -1.94 ± 0.19 |
| GAUCAGCAAUAUUACGCCUU | -0.124 ± 0.12 | 0.438 ± 0.14 |
| AUGUAGCAAUAUUACGGCCU | 0.449 ± 0.097 | 0.248 ± 0.12 |
| GUACAGCAAUAUUACGCACA | -1.52 ± 0.11 | -0.471 ± 0.11 |
| GCUUAGCAAUAUUACGCGCC | -1.62 ± 0.45 |  |
| ACCGAGCAAUAUUACGGAAU | -3.65 ± 0.2 | -2.33 ± 0.25 |
| GCCCAGCAAUAUUACGAGAU | -1.54 ± 0.12 | -0.957 ± 0.091 |
| ACUUAGCAAUAUUACGUUAA | -4.2 ± 0.46 | -2.02 ± 0.2 |
| CCGCAGCAAUAUUACGCGGC | -4.42 ± 0.42 | -2.55 ± 0.29 |
| GCGAAGCAAUAUUACGCGAA | -2.2 ± 0.13 | -1.68 ± 0.14 |
| AUAAAGCAAUAUUACGGGUC | -3.45 ± 0.19 | -1.25 ± 0.15 |
| UUCCAGCAAUAUUACGGUCG | -0.395 ± 0.081 | 0.623 ± 0.11 |
| ACGUAGCAAUAUUACGGACU | -2.66 ± 0.3 | -0.29 ± 0.24 |
| CUCCAGCAAUAUUACGAUCC | -4.16 ± 0.47 | -1.49 ± 0.32 |
| UUAGAGCAAUAUUACGUCUG | -0.606 ± 0.11 | -0.672 ± 0.12 |
| UGUCAGCAAUAUUACGCCUU | -1.38 ± 0.13 | -0.87 ± 0.14 |
| CACGAGCAAUAUUACGUCCU | -3.93 ± 0.3 | -2.81 ± 0.29 |

From the supplement of paper PMC7877785
